Data published in patent publication US20210024645A1 (HANGZHOU SUMGEN BIOTECH, published 2021).

Biological target: CD38 protein on the surfaces of Raji cells, Daudi cells, Ramos cells and RPMI8226 cells (human, UniProt P28907 1-300)
Experiment: cell-based or functional assay

B1: antibody SG003 (antibody, human IgG1, kappa, V domains shown)
VH: QVQLLESGGGLVQPGGSLKLSCVASGFDFSLYWMNWVRQAPGKGLEWIGKINPDSSTINYTPSLKDKFFISRDNAKNTLYLQMTKVRSEDTALYYCARLWIATGGFDYWGQGTTLTVSS
VL: EIVMTQSPASLSASLGQRATISCRASSSVSSSAFSYVHWYQQKSGQPPKLLIYLASNLESGVPARFSGSGSGTDFTLTIHPVESEDVATYYCHHSRELPFTFGSGTKLEIKR
  ADCC activity, EC50 (Daudi target cells, NK92MI-CD16a effector cells, LDH release): 0.72 ng/mL
  ADCC activity, EC50 (RPMI8226 target cells, NK92MI-CD16a effector cells, LDH release): 1.46 ng/mL
  ADCC activity, EC50 (Raji target cells, NK92MI-CD16a effector cells, LDH release): 6.97 ng/mL
